Molecular target: purified human complement Factor H (human) (UniProt P08603)
Assay: steady state fluorescence titration of purified human Factor H

Sequence of purified human complement Factor H (human) (P08603 19-1231 limits assumed): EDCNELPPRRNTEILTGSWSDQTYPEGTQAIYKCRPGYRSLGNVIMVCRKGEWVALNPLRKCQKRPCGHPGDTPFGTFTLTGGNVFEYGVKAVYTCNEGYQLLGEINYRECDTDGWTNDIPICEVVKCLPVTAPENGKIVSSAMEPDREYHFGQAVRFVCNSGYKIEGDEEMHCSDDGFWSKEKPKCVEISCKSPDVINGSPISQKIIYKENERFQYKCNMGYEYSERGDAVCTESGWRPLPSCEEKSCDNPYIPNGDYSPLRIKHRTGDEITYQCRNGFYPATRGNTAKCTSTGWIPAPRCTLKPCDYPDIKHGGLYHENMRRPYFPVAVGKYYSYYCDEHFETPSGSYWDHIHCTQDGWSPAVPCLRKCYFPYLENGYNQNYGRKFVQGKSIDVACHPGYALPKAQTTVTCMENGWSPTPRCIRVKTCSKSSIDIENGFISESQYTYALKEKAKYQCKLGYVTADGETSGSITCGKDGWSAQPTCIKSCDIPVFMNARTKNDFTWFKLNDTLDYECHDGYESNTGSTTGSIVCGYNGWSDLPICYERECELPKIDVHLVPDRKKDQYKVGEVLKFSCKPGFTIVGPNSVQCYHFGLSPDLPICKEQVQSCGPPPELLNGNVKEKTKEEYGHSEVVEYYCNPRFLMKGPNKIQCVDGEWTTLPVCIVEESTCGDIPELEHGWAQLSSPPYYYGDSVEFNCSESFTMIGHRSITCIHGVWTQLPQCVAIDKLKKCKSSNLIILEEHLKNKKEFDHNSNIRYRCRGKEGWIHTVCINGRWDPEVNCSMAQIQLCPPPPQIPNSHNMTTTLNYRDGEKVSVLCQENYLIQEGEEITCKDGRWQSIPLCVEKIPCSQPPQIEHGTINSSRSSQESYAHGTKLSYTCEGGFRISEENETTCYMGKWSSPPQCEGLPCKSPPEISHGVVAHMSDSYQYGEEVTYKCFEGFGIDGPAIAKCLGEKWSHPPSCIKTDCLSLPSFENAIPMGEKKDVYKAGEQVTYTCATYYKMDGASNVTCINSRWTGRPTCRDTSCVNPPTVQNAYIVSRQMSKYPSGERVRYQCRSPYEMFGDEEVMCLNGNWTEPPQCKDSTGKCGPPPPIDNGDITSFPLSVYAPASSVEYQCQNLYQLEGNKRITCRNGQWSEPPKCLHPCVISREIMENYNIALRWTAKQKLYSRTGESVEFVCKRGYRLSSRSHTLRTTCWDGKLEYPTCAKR

stoichiometry (DMP1:Factor H): 1 molar ratio
B1: recombinant dentin matrix protein 1 (rDMP1) (ligand)
chain: LPVTRYQNNESEDSEEWKGHLAQAPTPPLESSESSEGSKVSSEEQANEDPSDSTQSEEGLGSDDHQYIYRLAGGFSRSTGKGGDDKDDDEDDSGDDTFGDDDSGPGPKDRQEGGNSRLGSDEDSDDTIQASEESAPQGQDSAQDTTSESRELDNEDRVDSKPEGGDSTQESESEEHWVGGGSDGESSHGDGSELDDEGMQSDDPESIRSERGNSRMNSAGMKSKESGENSEQANTQDSGGSQLLEHPSRKIFRKSRISEEDDRSELDDNNTMEEVKSDSTENSNSRDTGLSQPRRDSKGDSQEDSKENLSQEESQNVDGPSSESSQEANLSSQENSSESQEEVVSESRGDNPDPTTSYVEDQEDSDSSEEDSSHTLSHSKSESREEQADSESSESLNFSEESPESPEDENSSSQEGLQSHSSSAESQSEESHSEEDDSDSQDSSRSKEDSNSTESKSSSEEDGQLKNIEIESRKLTVDAYHNKPIGDQDDNDCQDGY
